From EP4019090A1 (Numab Therapeutics AG, dated 2022)
Each block holds one binder with its values, some of them ahead of it.

Experiments:
IL-4R on HEK-Blue cells [1] = target: T1, IL-4R on HEK-Blue cells (human, UniProt P24394 26-825); assay: cell-based or functional assay
T1 sequence (looked up): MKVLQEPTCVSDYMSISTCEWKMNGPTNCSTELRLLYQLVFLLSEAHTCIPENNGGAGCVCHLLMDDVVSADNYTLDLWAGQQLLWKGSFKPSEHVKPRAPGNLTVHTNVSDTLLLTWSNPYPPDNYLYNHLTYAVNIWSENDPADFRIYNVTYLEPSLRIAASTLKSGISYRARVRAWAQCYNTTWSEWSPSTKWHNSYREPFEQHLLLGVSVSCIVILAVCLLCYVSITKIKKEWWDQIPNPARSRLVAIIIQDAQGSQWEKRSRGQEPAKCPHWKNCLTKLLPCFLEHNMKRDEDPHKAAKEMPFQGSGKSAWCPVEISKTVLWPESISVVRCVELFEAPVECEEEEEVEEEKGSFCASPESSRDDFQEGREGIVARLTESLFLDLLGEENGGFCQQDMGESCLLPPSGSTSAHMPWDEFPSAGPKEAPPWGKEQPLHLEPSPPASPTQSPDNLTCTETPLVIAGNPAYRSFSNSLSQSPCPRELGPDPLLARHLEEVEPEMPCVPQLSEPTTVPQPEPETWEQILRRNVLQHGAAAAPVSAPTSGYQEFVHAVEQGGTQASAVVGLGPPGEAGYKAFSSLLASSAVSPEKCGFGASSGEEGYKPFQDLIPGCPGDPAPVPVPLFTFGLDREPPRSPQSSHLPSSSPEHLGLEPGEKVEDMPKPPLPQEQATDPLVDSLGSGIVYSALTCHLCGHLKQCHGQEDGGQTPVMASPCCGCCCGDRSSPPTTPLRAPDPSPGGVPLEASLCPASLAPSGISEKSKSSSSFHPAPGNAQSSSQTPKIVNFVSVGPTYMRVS

IL-4R on HEK-Blue cells [2] = target: T1, IL-4R on HEK-Blue cells; assay: cell-based or functional assay; remark: listed apart in the source
[3] = target: T2, recombinant cynomolgus monkey IL-4R (ECD with His-tag, Acro Biosystems) (cynomolgus monkey, UniProt A0A2K5V580 33-239); assay: SPR (Biacore T200); antibody captured via anti-human IgG-Fc, cynomolgus IL-4R ECD-His as analyte; 1:1 Langmuir
T2 construct: extracellular domain; also called cynomolgus IL-4R; not shown: His tag
T2 sequence: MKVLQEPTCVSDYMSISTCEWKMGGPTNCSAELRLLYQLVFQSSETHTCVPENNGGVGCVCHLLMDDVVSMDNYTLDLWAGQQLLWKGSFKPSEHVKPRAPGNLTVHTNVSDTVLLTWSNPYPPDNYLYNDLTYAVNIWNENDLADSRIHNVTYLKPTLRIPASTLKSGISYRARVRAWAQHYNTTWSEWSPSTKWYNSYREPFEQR

[4] = target: T3, recombinant human IL-4R protein (ECD with His Tag, Sino Biological) (human, UniProt P24394 26-232); assay: SPR (Biacore T200); antibody captured via anti-human IgG-Fc, human IL-4R ECD-His as analyte; 1:1 Langmuir
T3 construct: extracellular domain; also called human IL-4R ECD; not shown: His tag
T3 sequence (looked up): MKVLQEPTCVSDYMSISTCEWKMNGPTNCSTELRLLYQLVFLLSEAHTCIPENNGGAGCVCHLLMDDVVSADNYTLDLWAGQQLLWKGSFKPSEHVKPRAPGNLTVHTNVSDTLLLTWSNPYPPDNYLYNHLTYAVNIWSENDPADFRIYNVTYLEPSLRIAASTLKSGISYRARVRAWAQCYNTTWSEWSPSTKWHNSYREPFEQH

IL-4R on HEK-Blue cells [5] = target: T1, IL-4R on HEK-Blue cells; assay: cell-based or functional assay; remark: listed apart in the source

- neutralize human IL-4-induced signaling in the stat-6 reporter gene assay: Mean IC50 [pM] (IL-4R on HEK-Blue cells [1]): 23.9 pM
- neutralize human IL-13 induced signaling in the stat-6 reporter gene assay: Mean IC50 [pM] (IL-4R on HEK-Blue cells [2]): 22.1 pM
B1: PRO2198 (bispecific antibody)
chain 1: DIQMTQSPSSLSARVGDRVTITCQASEDIESYLAWYQQKPGKAPKLLIYRASTLAYGVPSRFSGSGSGRDFTLTISSLQPEDFATYYCLGSSYSTGSNIFGQGTKVEIKRTVAAPSVFIFPPSDEQLKSGTASVVCLLNNFYPREAKVQWKVDNALQSGNSQESVTEQDSKDSTYSLSSTLTLSKADYEKHKVYACEVTHQGLSSPVTKSFNRGEC
chain 2: not shown

- Kd [3]: 0.0351 nM
- koff [3]: 3.44e-05 s⁻¹
- kon [3]: 980000 M⁻¹ s⁻¹
- neutralize human IL-4-induced signaling in the stat-6 reporter gene assay: Mean IC50 [pM] (IL-4R on HEK-Blue cells [1]): 11.5 pM
- Kd [4]: 0.197 nM
- koff [4]: 5.76e-05 s⁻¹
- kon [4]: 293000 M⁻¹ s⁻¹
- neutralize human IL-13 induced signaling in the stat-6 reporter gene assay: IC50 [pM] (single analysis) (IL-4R on HEK-Blue cells [2]): 11.3 pM
B2: PRO2199 (bispecific antibody)
chain 1: not shown
chain 2: DIQMTQSPSSLSASVGDRVTITCQASEDIESYLAWYQQKPGKAPKLLIYRASTLAYGVPSRFSGSGSGTDFTLTISSLQPEDFATYYCLGSSYSTGSNIFGQGTKVEIKRTVAAPSVFIFPPSDEQLKSGTASVVCLLNNFYPREAKVQWKVDNALQSGNSQESVTEQDSKDSTYSLSSTLTLSKADYEKHKVYACEVTHQGLSSPVTKSFNRGEC

- Neutralization of hIL-4-induced signaling in reporter gene assay: IC50 (IL-4R on HEK-Blue cells [5]): 1.44 ng/mL
- Neutralization of hIL-13-induced signaling in reporter gene assay: IC50 (IL-4R on HEK-Blue cells [5]): 1.83 ng/mL
B3: PRO1517 (scFv)
chain: DIQMTQSPSSLSASVGDRVTITCQASEDIESYLAWYQQKPGKAPKLLIYRASTLAYGVPSRFSGSGSGTDFTLTISSLQPEDFATYYCLGSSYSTGSNIFGTGTKVTVLGGGGGSGGGGSGGGGSGGGGSEVQLVESGGGLVQPGGSLRLSCAASGFSSSSAHYMCWVRQAPGKGLEWIGCIYAGSRGSTYYASWAKGRFTISRDNSKNTVYLQMNSLRAEDTAVYYCARAAFVNRGVSWIWPYYFSLWGQGTLVTVSS

- Neutralization of hIL-4-induced signaling in reporter gene assay: IC50 (IL-4R on HEK-Blue cells [5]): 1.15 ng/mL
- Neutralization of hIL-13-induced signaling in reporter gene assay: IC50 (IL-4R on HEK-Blue cells [5]): 2.3 ng/mL
B4: PRO1535 (scFv)
chain: DIQMTQSPSSLSASVGDRVTITCQASEDIESYLAWYQQKPGKPPKLLIYRASTLAYGVPSRFSGSGSGTDFTLTISSLQPEDFATYYCLGSSYSTGSNIFGTGTKVTVLGGGGGSGGGGSGGGGSGGGGSESQLVESGGGLVQPGGSLRLSCAASGFSSSSAHYMCWVRQAPGKGLEWIACIYAGSRGSTYYASWAKGRFTISKDNSKNTVYLQMNSLRAEDTAVYFCARAAFVNRGVSWIWPYYFSLWGQGTLVTVSS
